Assay: soluble on expression in E. coli; label from the status in PepcDB or PDB records

Sequence | soluble on expression in E. coli
MASSTSLAIVLHQSSNHDELFMKQTLQFSETLKDLKNLRKQLYSAAEYFETSYGKAEHKETVIETLKEYAAKAVVNTVDHLGSVSDKFNSFLSDNSTHFSTTHLRLSSLEQRMRLCRDYMGKSGTHQHLLLFQYPRHHKRYFFPQQGRGTSFSAGDDSHRFTSAVRSTILENLPNTARKANKTGSFSFAPIVHNNINNRTPNKRSNSPMRFPLLRSGSLLKRSSSPSQPKKPPLALPEPQRAISVSRNTEIVEIKQSSSRKGKKILMFKALMSMSKSRN | soluble
MAKAPDVVDLLALAVERGASDLVITVGLPPMLKIDGEFHPTEYEPLTPQETRRLMYALMDEKQQRIFEEEKELDFSFSLPGKGRYRVNVFLQRGSVGGVLRVVPSAVKSFEELGLPKNIAEIAMSPRGLVLVTGPTGSGKSTTLASMIDYINERKACHIVTIEDPIEFFHKHKRAIVNQREIGSDTKSFHKALRSVLRQAPDVILVGEMRDYETIAAAITAAETGHLVMGTLHTNSAPETIDRIVDVFPENQQEQVRVQLSNNLVAVLTQQLLPKAFGGGRVLAYELMIATPAVRALIREGKTHQLRSVIQTGGQYGMITMDACLADLYRRKLITYEMGLARAVDPKEFMRLAGAPEGARR | soluble
DYKYVLKGHEDIRQDSLVMQLFGLVNTLLKNDSECFKRHLDIQQYPAIPLSPKSGLLGWVPNSDTFHVLIREHRDAKKIPLNIEHWVMLQMAPDYENLTLLQKIEVFTYALDNTKGQDLYKILWLKSRSSETWLERRTTYTRSLAVMSMTGYILGLGDRHPSNLMLDRITGKVIHIDFGDCFEAAILREKYPEKVPFRLTRMLTYAMEVSGIEGSFRITCENVMRVLRDNKESLMAILEAFALDPLIHWGFD | not soluble
MEDKLITLAILTYAKAQILKNVLENEGIEAYIHNVNLIQPVISSGVRLRIKESDLPHALQIIESSAWLSEDIIKGKESSSERNKEKRKVLIPIDFSNYSLKACQFGFSFANAINSEVVLLHAYFSPIYVPTIPYGTDNFNFQIEREESVKSMIETVHNELNKLSDTIKKKVESGEFPNIKYTCILRDGIPEEEILRYAKEYNPQIIIMGTRGRSQKDIDLIGSVTAEVIERSKSFVYAIPEHTPLKTFNDIKKVAFVTNFDQRDLIAFDSLINAFKSFHFAVSFIHLSTDNDAWNEIKLAGIKDYFQKQYSKLELYYNVVKEDNILNNLDNYVKEENIDVICITNYKRNIFARLFNPSIARKMIFHANTPILVIK | not soluble
MRIFSRLFKARDKPKNSLFGNAYSFFFGGTSSGKAVNERTAMQTTAVYACVRILAEAIAGLPLHVYRYKEDGGKEKALTHPLYYLLHDEPNPEMTSFVFRETLMSHLLLWGNAYAQIVRDGSGRVLALYPLLPNKMTVDRAPNGELYYTYRRDSDESRVNPKAGLIYLRSDEVLHIPGLGFDGLIGYSPIAMAKNAIGMAIACEEYGASFFANGANPGGVLEHPGVLKDPAKVRESWNAVYQGSANAHRIAVLEEGMKFQPIGIPPEQAQFLETRKFQINEIARIFRVPPHMVGDLEKSSFSNIEQQSLEFVKYTLDPWVVRWEQALQKALLLPSEKRAYFVKFNVDGLLRGDYASRMNGYAVARQNGWMSANDIRELEDMNRIPAELGGDLYLVNGNMTRLADAGTFAGKNNAETEGSKVEQITKTKTGSPLLELDTKR | not soluble
MAGDPMKAREVEFEGHLIDSMIFTKALDIILDLDGEFEILEFRVGKKKDDPSYARMIVFGRDDAHLEQILKELHKIGARIPDIEEVELAEAPADKVLPDGFYVTTNHPTFVRYGGEWLPVEDISMDRVIVIRDGRAYCIPIDEVVRGDRVVVGEKGVRVVPPERPRKSTVFEFMGGRVSSERPTERMIEAIAREIYELKLKGGKIAVVAGPAVDHTSARNALAALIRDGYVDLLLSGNALAVHDIEISIFGTSLGMDICKGRPVPGGNRHHLYTISKVIAAGGIKKAIEKGIIKDGIMYECVKNNVPFILAGSIRDDGPLPEVITDVMVAKKKMKEALRGINMVIMLATMLHSIAVGNLLPSYVKTICVDMNPSTVTKLMDRGTHQAIGVVTDVGLFLPLLYLKIKEIEAKELEHHHHHH | soluble
SDHGSNEIDRHLTPGASPAYIGINKEKKLLYTANYHTAVLSVFQYSNSGKLALVAQTTHKAESLGPRPEQVDGPHPHFFDETPAGNLVSCDLGNDTVDFYRLENNELKHLAQYKNEAGFGDRHIVFSKDGNYFYVVGELSSQINVVKFNENTWEFEDIATYKTIPEDFTEHNGAAALYITNDGKYIYNSNRGHNSITVFKVNDDHTLSLIQRISTFGDFPRDFNWDETQKYVVAANQNT | soluble
MDGPHGTPVLDRIAKLREELPPPAVPGKGQKTDGRWFDGNGAVRDSVSGKDVDSEEAWRLLRESGIPLPRPPVVAHAEMKVAAAMRRLNVRHAVLVITNVPCDERWSCENLLPAVLPVGCSLSVHGPGYQRTFHGRTPKW | not soluble
MANRVTMMMKIFENQTAMLHKALNDQHTIESKYKQMETNYENLILKKNLLEGEIQRLRDPERVKSATKLERTKKPGKSEKKKDKDLERNISPNREFKSFEELHQIQETERNKTQLDNVLPQKSEMFKEERTKTKRGQSQNKSKVKIEDSKDSLPKKSDTQLGEQRKDQISSDQSKRAK | soluble
MESDTSRTPYNSIYATLKNKKTDGEVVCCVHGRRCSYGKGNQDGKRDDNQYVNLPFLKNQDQIASKLTGKLNKLKIAEEKENKIVPREKPEMMSLNTLVEIARAGEQPRKGRGDKEKRTKKAPVLVDDSQLYVMIGPPSEHPGEPPASEPTETYKTNTIDESTFKGSEALSAYIGVVTLANAENHLTRRGEFALYHLFNPNGRLDTITDKLPLMIVYRTTTKKNRHYSIRTTCDQQFFVDCGYPNVRKHYSLSHLVMFYKTSATCEINPDDTSADSFSWWLE | not soluble
MNCIIAQSGGPTSVINASVYGLVKANKKLNLYENVYGGLNGIEGILNKKIINLSDLDELQLERFKNSPASGLGSCRYKLKPLSESEDEYLKLLDILNSLNIKAFFYVGGNDSMDTTAKLNAFAKAKNIDIKFFGIPKTIDNDLMHTDHTPGFGSAAKFISTAVLETYLDSKVYTNNGIFIIETMGRDTGWLAASGALATINGNKCADLVYLPERAFSVQSFLTDVARIFKEKKHVYIVASEGLKDENGKFLTETAPNDDSFGHAQLGGVGAYLKNLIIQASITHRVKSLELNTLQRCSMHASSKIDVNEAVMVGQAALEASINSEGGYMVAIRRDSSFPYKSSTFLIEADKIANNIKYFPSEWINEEGNNITEEGLLYLKPLISDFEDRDSLPLYHSFVLLEHHHHHH | not soluble
MGSDKIHHHHHHMYQEISKLLMYGDLPQDEILYKLGQLFEQFEVGEYNKTELVRDINTQVKRILKVATDYGFDDNLWHNYLTFFLMMSENPFSITCEKVGASDGSVNGLVANDFRIFKKLFDYDFKPIESALGIDCFTQISNYKAIVKKDLMYNHNVSEKVRALSKKLEAAKDEQEFFDVVTGFYKAYGVGMFGLNKAFRIEEHLDGGFSFMPINNMDAVMLDDLIGYEIQKKKLTDNTEAFVQGKKANNVLLFGDSGTGKSTSIKAIVNQYYDDGLRMIEIYKHQFKYLSKIIAAIKNRNYRFIIYMDDLSFEEHEIEYKFLKAVIEGGVETKPDNILIYATSNRRHLIKETWNDRNDQDNSNDKHHSDTVEEKLSLVNRFGVTISYSKPSQKEFFNIVTELARKSGCTLSDEELCREANKWELSHGGISGRTATQFVNYIMANN | not soluble
DILLTQSPAILSVSPGERVSFSCRASQSIGTDIHWYQQRTNGSPRLLIKYASESISGIPSRFSGSGSGTDFTLSINSVESEDIANYYCQQSNRWPFTFGSGTKLEIKRADAAPTVSIFPPSSEQLTSGGASVVCFLNNFYPKDINVKWKIDGSERQNGVLNSWTDQDSKDSTYSMSSTLTLTKDEYERHNSYTCEATHKTSTSPIVKSFNRN | soluble
MGSDKIHHHHHHMISHKKDQAAGLRELTALEPNAGVRVFAVVGGRTGVGKTSSVINLAVALAKTGKRVLILDENPRHKDVNANLGLSARYDLLHVINQDKTLEQVMTQGPEDVLVLTAMRGIHSLAKLSSADQERLIQCFSELSQTVDVVLIDTAIGRTSRVVPLSLASQQVLIVLSASGKAITDAYALIKLISQEYARRDFLVLVNKVESESMGRDIFENIAGVAQKHLAVKLEWMGCILFDEKLQRSTRLCQPVVEIFPTSASAAGYRQLAEKLMRCAGPWTDNDGVENFMRRLIRTSHLDIADFTV | not soluble
MFADTCGFMNRSPEHIFGSPEIDYSDVSTGYLEDALIESGERSKRRRLLFEDPSKSFNDDDSQNDWGLHESYSCLNSQFVTPHVNTGERISGVSYCQETISNVYESPDTSVSYDKIYVREKSPTEPSSSNCGNKNKRLITKLVYPFGLVKPGGRENDVTLNDINERILMAPSRPIRHPVGDFASRPCVSGRGPGLSGKAVVALTKIQTQGRGTITIIRTKG | soluble
MGSDKIHHHHHHARLNAFKQLTPGSDVRDWIAAAGQVGGLGAADLNFPDHFAVYDADQMGNFLGEAALTLNGIAMRYYTDPGFKLGAFTHPDAAVRQAALDVTKQGIDTCARMGGKTVTLWMGQDGFDYAFQMDYGLAWDRTVAAIADICAHDPNIDIAIEYKPNEPRAFALMPDIGTTLLACREVGAVNLGVTLDFAHVLYADEMPAHSAALIGRHSRMIGLHLNDGYGKRDDGLMVGSVHAIQTVELLVAMLRMGQTDVIYFDTFPDMGGLNPIEEARTNVAVTDRLMAVAESLMEDPALAQAIDRQDAAASHRIVARALYGS | not soluble
MRGLAVLVLLVFAVQVAAAEDFRPVVFVHGLAGSAGQFESQGMRFAANGYPAEYVKTFEYDTISWALVVETDMLFSGLGSEFGLNISQIIDPETLDKILSKSRERLIDETFSRLDRVIDEALAESGADKVDLVGHSMGTFFLVRYVNSSPERAAKVAHLILLDGVWGVDAPEGIPTLAVFGNPKALPALGLPEEKVVYNATNVYFNNMTHVQLCTSPETFAVMFEFINGYKPATTDIVPQDGDYVKVKGKFLAFATNGDVSGWLSIYPIDENGKRLTRLPVKFMRVKGDFEVRLRKGQLYEFQFRKDFSPIIYHYYRAPFVRDDLWARFLVSKPPLDVELLILPERLSPAAKETSGLLLIRYKEMIGEYDEEIGGVDEVYVNGVNVCTERICPIERAVNGLWVFDRGADGKSDLDREVVRYSIMPFMSAADLVVPAEGTISIAVKSRTGGEESFTIPAWSADRHSIIVQFSDYI | not soluble
VTQPSGLKNLLRAAAGALPVVPRTDQLPNRTVTVEELPIDPANVAAYAAVTGLRYGNQVPLTYPFALTFPSVMSLVTGFDFPFAAMGAIHTENHITQYRPIAVTDAVGVRVRAENLREHRRGLLVDLVTNVSVGNDVAWHQVTTFLHQQRTSLSGEPKPPPQKKPKLPPPAAVLRITPAKIRRYAAVGGDHNPIHTNPIAAKLFGFPTVIAHGMFTAAAVLANIEARFPDAVRYSVRFAKPVLLPATAGLYVAEGDGGWDLTLRNMAKGYPHLTATVRGL | not soluble
MGSDKIHHHHHHMERPTGVYFQTMTMKQIRERLKQCDLIIIPVGSTENHGPNAPTGEDTFLVTRMAEQVALKTGCTVAEPIWYGYHPYHHIGMPGTVPVKDEAFIDYLVSVIAGFWNTGFRKQILLNGHGQEFVIPIAIHKFAKIFQVPAIIINLNWYHAIQDKFKTKEEGGPYETPFIHADEVETSWSLALFPEFMHQEWAVDTEPKGFLPEGHIDKAGNLLHRPIAWYGHVGGGPIEVVAYPEGVVGKATLASAEKAKEGVEALLDYLEKLVRDIMERFPAGKLPPAEMLSQRPKEELEALTKEPLTEGWRNLYTAGNLWG | not soluble
